The assay concerns the target HA of BPL-inactivated virus preparation of strain A/New Caledonia/20/99 (H1N1) (influenza A virus A/New Caledonia/20/99 (H1N1)). The assay is described as follows: ELISA, coated inactivated virus, IgG 5 µg/ml.

B1: CR6329 (antibody, V domains shown)
VH: EVQLVQSGAEVKKPGSSVKVSCKASGGIFRSNSISWVRQAPGQGLEWMGGIFALFGTTDYAQKFQGRVTITADESSTTVYLELSSLTSEDTAVYYCARGSGYTTRNYFDYWGQGTLVTVSS
VL: EIVLTQSPGTLSLSPGERATLSCRASQSVSSNYLGWYQQKPGQAPRLLIYGASSRASGIPDRFSGGGSGTDFTLTISRLEPEDFAVYYCQQYGSSPLTFGGGTKVEIKR
Molecule B1 returned an OD 492 nm of 1.04 OD 492 nm.

The record behind these values is patent publication US20090311265A1.
